Experimental data from the DeepSol protein solubility set.

Assay: soluble on expression in E. coli; label from the status in PepcDB or PDB records

Row | Sequence | soluble on expression in E. coli
1 | VTLLEQNPRWRLVPRGQAVNLRCILKNSQYPWMSWYQQDLQKQLQWLFTLRSPGDKEVKSLPGADYLATRVTDTELRLQVANMSQGRTLYCTCSAAPDWGASAETLYFGSGTRLTVL | soluble
2 | MSLNSQEMVLGNAWLVLADRVIEHGWVAIADGVIAEVGEGDAPNGAKDMHGDLVMPGLVELHTDHLEAHYTPRPKVQWNPVAAVVSYDGQLATCGITTVLDSLRVWREEGAEEVDGQAIVLAGAISTARDAQLLRADHFLHLRCEIPMPNVVAEAKELIDRPDIRLMSLMDHTPGQRQFRDEEKLRDYYRGKGAGMTDAELDVMFARRVYCKENYADANMRAIVELAHRYEIPLASHDDTTPENVADAIRDRVAVAEFPTTLEAARELHQAGIDILMGAPNVVRGGSHSGNIAAIDLAHEGLLDILSSDYIPSSLLIAALQLPMRAPGIDLAAAIRTVTKAPAEAVGLNDRGEISKGKRADLIRVHVAHDVPAVRSVWREGQRVAEGHHHHHH | not soluble
3 | MFTQLALLSVLAVFVAQATMNLPSQEQYNAELKSAGMSQAGIDGLNVLSQKFVSQYPVVQANKEAADKFLAEYTEEAQNYVKSMSPEDQKIYAESLKKYGLA | not soluble
4 | MSLRAPRRSNADGLSENVLKAILEPAAAYMAETQKMKEEGNENGGSENTNIDQRNQLLQQASQRGSIGSFLDTTSLSTCSKRSLHSSRLTLSDSKEFYKTVGCRWIRSVRHGDVSTVKKMLEENSELVNYAPTYGPLALHLAAARSDRSIILLLLAKGAEVDSRDAAGYTCLQLAIRRGNQSLAHFLILQGANIELIDPDGRGIIDYDGWSGEDQRSAEKHFYGKIILRPKAHSFVGSPSSISMKSSKSTRTMRPSSTPNDSMISEYESSNLKRNEKQRSSWMSFFKSHTIFGSNSKS | not soluble
5 | MGSDKIHHHHHHMKMTFCRAVCLAAAFLLMGCDEAPETTTASPAAQVLEGKTMGTLWRVSVVGIDAKRAAELQTKIQTQLDADDWLLSTYKNDSALMRFNHSRSLAPWPVSEAMADIVTSALRIGAKTDGAMDITVGPLVNLWGFGPDRQPLHIPTPAQIDAAKAKTGLQHLQVIDRAGHQFLQKDLPDLYVDLSTVGEGYAADHLARLMEQEGIARYLVSVGGALSSRGMNAQGQPWRVAIQKPTDRENAVQAIVDINGHGISTSGSYRNYYELDGKRVSHVIDPQTGRPIEHNLVSVTVIAPTALEADGWDTGLMVLGTQKAQEVVRREGLAVFMIMKEGEGFKTWMSPQFKTFLVSDKN | not soluble
6 | MPSYKLTYFNARGYGEAARILFHLADVPFEDFRMTHGDGTWEKLKEKTPLGQVPVLSVDGFEIPQSAAIIRYLANKFGYAGKTPEEQAWADAIVDQFKDFMGSFREVGKAHAAGKPAEEIAKIMQSDVVPARDAFFVIINGILEKSKSGFLVGDGLTFADIVVVECITTLDKNQLFTPAGEPKLVALREKVYAIPAIKKWVEIRPDTQY | not soluble
7 | MGSDKIHHHHHHMIDFIYSFQNMEQINSSSWHLPTQYFLNRNNKMEATNTHDIQGLSARKTVEAYLAAFAEGKLDDIVSLLDDNVVWHIDGEPGVSTVGLLQGPGRVRRWLQNFPQNFRPLDFSISDIIAHNDSVLVLGRFRHTVLSTGNAVGSDMIIHFKVSGSKITRYQMFEDSALLSRAFDASDEWQLQQVRINGTLYRYRDIGEGPTLIFAHGLFANHEIFSAQFQILSKSYRCIVLDMPGHGLSEYDPAGWKLDDLSRDLALMIQELSLGKVTFIGQSQGGMVAIRLAAHYPQLVSGLVLIGTSARAEFPERLQNWHRQRDILLTGSEHAREDLFKKIQSHINNEAWLQNNQGEAARERRIMLSHNRTGLALALDAAVFERGDITELLADISAPTLIICGEQDTATPVELSQEIATLIADASILILAKTGHHPPTEAAQAVTAAIAEFLKLECSNHH | not soluble
8 | MTTKRIDRDLPSSDDPSSAKRRIEFPEETLENDGAAAIKLLSLLLQCAEYVATDHLREASTLLSEISEICSPFGSSPERVVAYFAQALQTRVISSYLSGACSPLSEKPLTVVQSQKIFSALQTYNSVSPLIKFSHFTANQAIFQALDGEDSVHIIDLDVMQGLQWPALFHILASRPRKLRSIRITGFGSSSDLLASTGRRLADFASSLNLPFEFHPIEGIIGNLIDPSQLATRQGEAVVVHWMQHRLYDVTGNNLETLEILRRLKPNLITVVEQELSYDDGGSFLGRFVEALHYYSALFDALGDGLGEESGERFTVEQIVLGTEIRNIVAHGGGRRKRMKWKEELSRVGFRPVSLRGNPATQAGLLLGMLPWNGYTLVEENGTLRLGWKDLSLLTASAWKSQPFD | soluble
9 | MREEVKTVIKVKTVGDVPAIVSARKSITEGKVKDAIISGYRDVKNDYMRYFGIQQAPDEGERLFIVNTLKGLGIDLPEESIVDGKFIIDRISGMDLASTDPKVACFVKIAEFYLKYYEKAKYSDSVIEDDGEIIERLTGIYNYMDITKLYFKGDDAGVGT | not soluble
10 | MGSDKIHHHHHHMLLKSPDKSPEKILKLFDEVYSKARIFYLLRTAIDLNLFEYLSSFKTAKELAEILDADLILMEYMLKILNELDLIESKVVSERIYYKNAEITNIYLKKDSNYSIINPIYSYFENIKNWENLADILKNKSNCSNMDVDNFFPKVVRRMADECKCWELQKVLNYMAKYEEFKNAKKLLDLAGGHGLYAIGFSMLNRNLKCYVFDLPNVIEETKKFIKKYNAKNVFTITGDFYKDDIGKGYDIIFCSYNPGGKNPKIAEKVYNALNEGGLFINKQFFPDKEEGIEDYINNMEWNFSKPEGLKKGKIRYTFEGDLNLNDYLKYLEDLGFKILEVVDMSELLGLDENSSSFRKSANPSDSLRFKDNSPAKMIVAKKL | not soluble
11 | MSLAKELLIKNACVYDPLNGIEGEVMDIGVKDGKIVDPSEVDESKAKVIDAEGRLTMAGGVDIHAHVAGPKVNVGRIFRPEDSRRLQVAIKKLGTRSGTGFSVPSTTITGYLYAQMGYTTVMEAATPPLLTRHTHEEIRDTPILDEGAYTLMANNWILYEYIKEGELEKAAAYAAWLLRATKGFVIKMVNPGGTEAWGWGENVHSLDDPVPYFEITPAEIYQNYVKINEMLGLPHSIHIHPNLLGEPGNYEITTDSWDVIKKTGVEPNPEIGEREQVVHNTHVQFHSYGGDSWPTFESKAEEVAKYLNKNDHVTVDLGAVTLDETTTMTADGPLEWELQELTGFKWANYDVELETGSGVVPFIYSPKNPVHSVQWAIGLEIALLTENPWQVVISTDHPNAGPFIRYPRIIAWLMSEPYREEWIENVHPWVGQRAAIATIDREYTWTDITITTRAAPAKMLGLSDRIGHLGEGAYAHIAIYDIKPDEVDPSRDYEEVEKAMEQAWLVVKDGEIVVQEGVVVNEPVGRTYWVDVKVPEDLLEEVKKDLETKFRRYYSVNLGNYQVQDVYIPKEERIVIDARDRLSEGHHHHHH | soluble
12 | QTFSEEDHAILASYFPIVDGIAALIGEHCEIVLHSLEFLENSAIYIANGHNTDRKIGSPLTDKALKSLHQMQTDSVSKPYFTRLKGGILMKSITIAIRNSKQHVIGFICININLDVPTAQFLTSFIPRTQDDEN | not soluble
13 | MGSDKIHHHHHHMVVNESMYQLGSVRSAIRELFEYGKKRAAIVGKENVYDFSIGNPSIPAPQIVNDTIKELVTDYDSVALHGYTSAQGDVETRAAIAEFLNNTHGTHFNADNLYMTMGAAASLSICFRALTSDAYDEFITIAPYFPEYKVFVNAAGARLVEVPADTEHFQIDFDALEERINAHTRGVIINSPNNPSGTVYSEETIKKLSDLLEKKSKEIGRPIFIIADEPYREIVYDGIKVPFVTKYYDNTLVCYSYSKSLSLPGERIGYVLVPDEVYDKAELYAAVCGAGRALGYVCAPSLFQKMIVKCQGATGDINAYKENRDLLYEGLTRIGYHCFKPDGAFYMFVKALEDDSNAFCEKAKEEDVLIVAADGFGCPGWVRISYCVDREMIKHSMPAFEKIYKKYNK | not soluble
14 | MSYSSQGVVEKGKVMPGDVLATIEEFLPGEGVYVDPVKGFIRAAAPGVAYLDMSRRIAYVKPHKKPQTPGPGSEVAALVTGVRGDLVVAEVYGVVRLSPKPAWLYELPSPYSAAIPISQIADEYIKNIEDYYRMGDWILAKIVSRTPPFTLSTVEPRYGVVYAICSRCGAVMEFQSERSMKCPKCGNVEKRKVSIHAKSRHLRIRLVRNLVIYRS | soluble
15 | MGSDKIHHHHHHMARKDKIVTPSVTQKLQSLGYNVADWDDSKTTSKLTDEIITVLKKASKSENGNEGYPDRIYCNKKKKLLILVEEKPTMQEHNIESIKSGCIAGLKWYLKQFLSEKFSSWKIIGIAVSGDLSDQYKHKFSCFLIDKQKISLAENVNNFLKENEFIALFNNIDEEKAISKVTKVSKKINKLLRSIDSQKRPIILAALMISLYRSEKYDNNFPDIYENYNSEQILNNIYPTVKNILTAEDVPEEKLKSLELELNSINQDPSLKNTNILKEILKELDENIIQLFNDTFSTTSNYDIMGKFYEEFLRFAGVSNVKKGIVLTPRHIATLFTKLIPFKKNDKILDLCCGTGAFLIAGMNKLLSLKGIDAQNVKSNQLLGFEINPTMYICAISNMLFRGDGKSKIYNMDSINDDKVNKIISESAPTIGFINPPYSGKENKEDPTPKEITFLKKC | not soluble
16 | MKKPVIGITGNEKTHPDDDIMMSYAAKGFVEGVKDAGGIPIILPIGDQEMACHYISLIDKLILTGGQNVDPKFYGEPKTIDSDDYHLQRDIFELALIKEAIKQKKPIFSVCRGTQLFNVAMGGTLYQDIEDHWQDSSVEYTTQRLVTEPDTVLQEIYGEISHINSFHHQSIKDLAPNLKVVAHDPKDGIIEAVMSTDDVAFLGVQWHPELLFENRPKDKKLFDYVVNEL | not soluble
17 | MSLSTPIQAEPPNLSLIRKEIKNYYDSGLYYHELERTIKLAQEYIHQQYLINKNNKHPQKLAIVLDIDETSLSNYDKMVKRDFTGSKEQIHKEILAANSPAIKPMLTLYKNALKQGIKVFFVTGRQESERDATRANLIKAGYTKWAGLYLRPNGYSSPSIIPFKSKAREMIAKKGYTIIASIGDQCSDIQGGYTKKGFKLPNPFYYLPEGHHHHHH | soluble
18 | MKTMSEEDSRTASRYAMIREVLRNAIVSGAAAKGLVLLEAPLGELFGTSRVPVRKALNLLHEEGLISRFDGRGYLVNPERQHVEPLRLSLSHKQFGLDSNEELVDTRPLGERIHDEIGAALSACIAFGHYRLDEQSAAQHYGVSRSVVREALMRLRDRGLVEKEPYSQWLAGPLTAREITEDYELRACLEPEALRLTAPQLSRETLEAMLTRVVEAQNAEQCSLEDIERLEEDLHQQCLAGLQNRKIATLISQAQSPMIINRIFYRLLDIGADEAMLAEHRLIIELLLHGAFDAAALNLKEHLQRARQRMLQRLKVLSVLPEQEVPGYLTRLS | not soluble
19 | SMQEKYRLVVVGGGGVGKSALTIQFIQSYFVTDYDPTIEDSYTKQCVIDDRAARLDILDTAGQEEFGAMREQYMRTGEGFLLVFSVTDRGSFEEIYKFQRQILRVKDRDEFPMILIGNKADLDHQRQVTQEEGQQLARQLKVTYMEASAKIRMNVDQAFHELVRVIRKFQEQ | soluble
